Ends that are not written are not given here.

From patent publication US20160272698A1 come the findings set out here.

The target in assay [1] is Bacillus anthracis lethal factor (recombinant LF) (Bacillus anthracis) (UniProt P15917). Kind of assay: immunoblot of denatured recombinant LF.
Assay [2] deals with AVR1674 (LFG2 3F3:3H9:2C10:4B10). Kind of assay: biolayer interferometry (Octet), biotinylated peptide on streptavidin tips, LFG2:4B10 mAb at 500 nM.
For assay [3] the target is unchanged. Description: biolayer interferometry (Octet), biotinylated peptide on streptavidin tips, LFG2:4B10 mAb in solution, 1:1 Langmuir fit.
For assay [4] the target is unchanged. Description: biolayer interferometry (Octet), follow-up experiment, 4-point titration of mAb LFG2 against the peptide.

UniProt P15917, sequence (P15917 34-809 limits assumed): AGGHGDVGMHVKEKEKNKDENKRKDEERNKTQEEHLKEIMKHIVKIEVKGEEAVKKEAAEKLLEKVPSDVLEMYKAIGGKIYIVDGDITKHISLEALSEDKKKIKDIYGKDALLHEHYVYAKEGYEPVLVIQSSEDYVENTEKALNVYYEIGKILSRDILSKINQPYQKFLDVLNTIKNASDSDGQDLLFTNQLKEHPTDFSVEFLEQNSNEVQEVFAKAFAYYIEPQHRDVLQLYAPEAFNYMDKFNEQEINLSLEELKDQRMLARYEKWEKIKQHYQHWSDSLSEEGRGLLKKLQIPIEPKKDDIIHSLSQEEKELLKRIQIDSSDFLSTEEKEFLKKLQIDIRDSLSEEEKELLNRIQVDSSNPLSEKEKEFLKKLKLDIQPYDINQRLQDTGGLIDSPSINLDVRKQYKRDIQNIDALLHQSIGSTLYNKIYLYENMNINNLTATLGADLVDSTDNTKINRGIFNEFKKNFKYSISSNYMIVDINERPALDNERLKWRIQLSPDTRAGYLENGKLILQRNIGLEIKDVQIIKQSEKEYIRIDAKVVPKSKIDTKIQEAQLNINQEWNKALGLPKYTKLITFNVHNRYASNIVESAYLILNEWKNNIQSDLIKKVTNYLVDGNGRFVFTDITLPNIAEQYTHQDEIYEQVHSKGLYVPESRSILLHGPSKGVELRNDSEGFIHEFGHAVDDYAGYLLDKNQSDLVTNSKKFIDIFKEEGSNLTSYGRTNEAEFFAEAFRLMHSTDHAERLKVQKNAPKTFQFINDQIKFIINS

B1: AVR1674 (LFG2 3F3:3H9:2C10:4B10) (antibody, V domains shown)
VH: EVQLQVSGAELVKPGASVRLSCKASGYTFTSYYIYWVKQRPGQGLEWIGDINPSDGDTDFNEKFKSKATLTVDKSSSTAYMQLSSLTSEDSAVYYCTRSRGGFAYWGQGTLVTVSA
VL: SHGDQASISSRSSQSIVHSNGNTYLEWYLQKPAQSPKLLIFKVSNRFSGVPDRFSRSGSGTDFTLKISRVEAEDLGIYYCSQGSHVPWTFGGGTKL
In the case of B1, in assay [1], the amount of LF detected by immunoblot is under 30 ng.

B2: …-biotin (SEQ ID NO: 31) (peptide)
peptide: TFKDEAGGGSK-biotin
Consider B2, for which the Response R in assay [2] turned out to be 5.29 nm. In assay [3], this molecule gave a Kd of 16.4 nM.

B3: …-biotin (SEQ ID NO: 25) (peptide)
peptide: TFKDEIGGGSK-biotin
In the case of B3, in assay [2], the Response R is 4.84 nm. The equilibrium dissociation constant (Kd) in assay [4] came out at 9.97 nM; in assay [3] it was 13.9 nM.

B4: …-biotin (SEQ ID NO: 30) (peptide)
peptide: TFKDAIGGGSK-biotin
On to B4, for which, in assay [2], the Response R turned out to be 1.01 nm. Also, the dissociation constant Kd in assay [3] was 24.5 nM.

B5: …-biotin (SEQ ID NO: 37) (peptide)
peptide: TFQDEIGGGSK-biotin
In assay [2], B5 gave a Response R of 1.34 nm. For the same molecule, the dissociation constant Kd in assay [3] turned out to be 34.4 nM.

B6: …-biotin (SEQ ID NO: 36) (peptide)
peptide: THKDEIGGGSK-biotin
Molecule B6 had a Response R in assay [2] of 2.37 nm. Moreover, the Kd in assay [3] was 60 nM.
